Test results reported in patent US8541373B2, “BChE albumin fusions for the treatment of cocaine abuse” (priority 2009, dated 2013).
“And” between values parts separate entries of the source, which are not always exact repeats. Identical values can stand only once.

Experiment: AlbuBChE serum pharmacokinetics after single IM dose (ELISA)
Conditions: for tmax: group value
Experimental: The study included a total of 11 naïve, adult male cynomolgus monkeys divided into four dose groups: • a control group of two cynomologus monkeys that only received a single IV dose of cocaine; • three dose groups that were treated with a single IM dose of AlbuBChE at 0.2, 1 or 5 mg/kg. Three naïve, adult male cynomolgus monkeys were used in each dose group. Following AlbuBChE treatment, a 1 mg/kg IV dose of cocaine was administered at 2, 48, 96, 120, and 240 hours after AlbuBChE dose administration.
A single intramuscular (IM) administration of AlbuBChE was administered on study day 1 and blood was collected at the time points outlined in Table 2. Approximately 0.5 mL of whole blood was collected from the femoral vein into serum separate tubes (SST).
Blocking is done with 2% Casein in 1×PBS, 200 μL/well, 2 hours at room temperature. After washing, 100 μL of diluted serum samples are added to the plates along with standards. Standards are generated through 3.64 fold, serial dilution of AlbuBChE from 2000 to 3.1 ng/mL. Serum samples and standards are maintained at 10% serum by dilution with buffer containing pooled cynomolgus monkey serum. A wash step precedes detection with 100 μL of anti-HSA mAb-6502-HRP at 0.04 μg/mL for 1 hour. Wells are washed again, prior to developing with 100 μl of TMB substrate. After 15 minutes, the reaction is terminated with 100 μL/well of 1N H2SO4 and read on SpectraMax plate reader at 450/570 nm. Values for unknown serum samples are calculated by interpolation of standard curve generated by 4-parameter fit of AlbuBChE standards. The limit of quantitation in cynomolgus serum was 21.1 ng/mL.
AlbuBChE pharmacokinetic parameter values were determined using serum concentration-time profiles for individual animals. The computer software WinNonlin Professional (Version 4.0.1 Pharsight Corporation, USA) was used. Specifically the model for non-compartmental analysis with extravascular input was applied. If there were fewer than 3 data points in the terminal phase of the serum concentration curve, a terminal phase half-life and PK parameters derived from the half-life were not calculated for that profile. Parameters analyzed include tmax, Cmax, t1/2, AUC(0-t) and AUC(0-∞) were calculated.

AlbuBChE
AlbuBChE serum concentration, individual animals (1.0 mg/kg IM, 24 hr post dose): 630.1 ng/mL and 673.8 ng/mL and 572.1 ng/mL | Mean AlbuBChE serum concentration (1.0 mg/kg IM, 24 hr post dose): 625 ng/mL | AlbuBChE serum concentration, individual animals (1.0 mg/kg IM, 36 hr post dose): 373.4 ng/mL and 471.7 ng/mL and 348.2 ng/mL | Mean AlbuBChE serum concentration (1.0 mg/kg IM, 36 hr post dose): 398 ng/mL | AlbuBChE serum concentration, individual animals (1.0 mg/kg IM, 48 hr post dose): 289.4 ng/mL and 362.7 ng/mL and 264.4 ng/mL | Mean AlbuBChE serum concentration (1.0 mg/kg IM, 48 hr post dose): 306 ng/mL | AlbuBChE serum concentration, individual animals (1.0 mg/kg IM, 72 hr post dose): 122.1 ng/mL and 235.0 ng/mL and 133.0 ng/mL | Mean AlbuBChE serum concentration (1.0 mg/kg IM, 72 hr post dose): 163 ng/mL | AlbuBChE serum concentration, individual animals (1.0 mg/kg IM, 96 hr post dose): 87.0 ng/mL and 131.7 ng/mL and 75.3 ng/mL | Mean AlbuBChE serum concentration (1.0 mg/kg IM, 96 hr post dose): 98.0 ng/mL | AlbuBChE serum concentration, individual animals (1.0 mg/kg IM, 128 hr post dose): 36.2 ng/mL and 72.0 ng/mL and 38.1 ng/mL | Mean AlbuBChE serum concentration (1.0 mg/kg IM, 128 hr post dose): 48.8 ng/mL | AlbuBChE serum concentration, individual animals (1.0 mg/kg IM, 144 hr post dose): 27.4 ng/mL and 47.7 ng/mL and 31.5 ng/mL | Mean AlbuBChE serum concentration (1.0 mg/kg IM, 144 hr post dose): 35.5 ng/mL | AlbuBChE serum concentration, individual animals (1.0 mg/kg IM, 168 hr post dose): <LLOQ (2×) and 39.5 ng/mL | Mean AlbuBChE serum concentration (1.0 mg/kg IM, 168 hr post dose): <LLOQ | AlbuBChE serum concentration, individual animals (1.0 mg/kg IM, 216 hr post dose): <LLOQ | Mean AlbuBChE serum concentration (1.0 mg/kg IM, 216 hr post dose): <LLOQ | AlbuBChE serum concentration, individual animals (1.0 mg/kg IM, 264 hr post dose): <LLOQ | Mean AlbuBChE serum concentration (1.0 mg/kg IM, 264 hr post dose): <LLOQ | tmax (1.0 mg/kg IM): 3 h | AUC % Extrap, individual animals (5 mg/kg IM): 1.86% and 0.938% and 1.85% | AUC(0-t), individual animals (5 mg/kg IM): 201.754 µg·h/mL and 437.848 µg·h/mL and 235.983 µg·h/mL | AUC(0-∞), individual animals (5 mg/kg IM): 205.584 µg·h/mL and 441.992 µg·h/mL and 240.442 µg·h/mL | Cmax, individual animals (5 mg/kg IM): 6016 ng/mL and 17687 ng/mL and 6530 ng/mL | Tmax, individual animals (5 mg/kg IM): 6 h | t½, individual animals (5 mg/kg IM): 63.4 h and 56.4 h and 65.5 h | Dose Normalized AUC(0-∞) (5.0 mg/kg IM): 59201 | Dose Normalized Cmax (5.0 mg/kg IM): 2016 | Mean AUC % Extrap (5.0 mg/kg IM): 1.55% | Mean AUC(0-t) (5.0 mg/kg IM): 291.862 µg·h/mL | Mean AUC(0-∞) (5.0 mg/kg IM): 296.006 µg·h/mL | Mean Cmax (5.0 mg/kg IM): 10078 ng/mL | Mean t½ (5.0 mg/kg IM): 62 h and 61.8 h | AlbuBChE serum concentration, individual animals (5.0 mg/kg IM, 1 hr post dose): 2580.0 ng/mL and 6570.9 ng/mL and 3821.0 ng/mL | Mean AlbuBChE serum concentration (5.0 mg/kg IM, 1 hr post dose): 4324 ng/mL | AlbuBChE serum concentration, individual animals (5.0 mg/kg IM, 3 hr post dose): 4899.0 ng/mL and 12683.9 ng/mL and 6024.0 ng/mL | Mean AlbuBChE serum concentration (5.0 mg/kg IM, 3 hr post dose): 7869 ng/mL | AlbuBChE serum concentration, individual animals (5.0 mg/kg IM, 6 hr post dose): 6016.0 ng/mL and 17686.8 ng/mL and 6530.3 ng/mL | Mean AlbuBChE serum concentration (5.0 mg/kg IM, 6 hr post dose): 10078 ng/mL | AlbuBChE serum concentration, individual animals (5.0 mg/kg IM, 12 hr post dose): 4178.0 ng/mL and 11105.8 ng/mL and 5091.0 ng/mL | Mean AlbuBChE serum concentration (5.0 mg/kg IM, 12 hr post dose): 6792 ng/mL | AlbuBChE serum concentration, individual animals (5.0 mg/kg IM, 24 hr post dose): 2836.0 ng/mL and 5034.0 ng/mL and 3325.0 ng/mL | Mean AlbuBChE serum concentration (5.0 mg/kg IM, 24 hr post dose): 3732 ng/mL | AlbuBChE serum concentration, individual animals (5.0 mg/kg IM, 36 hr post dose): 1572.0 ng/mL and 2929.0 ng/mL and 1901.0 ng/mL | Mean AlbuBChE serum concentration (5.0 mg/kg IM, 36 hr post dose): 2134 ng/mL | AlbuBChE serum concentration, individual animals (5.0 mg/kg IM, 48 hr post dose): 1329.7 ng/mL and 2644.4 ng/mL and 1604.9 ng/mL | Mean AlbuBChE serum concentration (5.0 mg/kg IM, 48 hr post dose): 1860 ng/mL | AlbuBChE serum concentration, individual animals (5.0 mg/kg IM, 72 hr post dose): 637.7 ng/mL and 1190.8 ng/mL and 723.6 ng/mL | Mean AlbuBChE serum concentration (5.0 mg/kg IM, 72 hr post dose): 851 ng/mL | AlbuBChE serum concentration, individual animals (5.0 mg/kg IM, 96 hr post dose): 415.1 ng/mL and 732.6 ng/mL and 454.7 ng/mL | Mean AlbuBChE serum concentration (5.0 mg/kg IM, 96 hr post dose): 534.1 ng/mL and 534 ng/mL | AlbuBChE serum concentration, individual animals (5.0 mg/kg IM, 128 hr post dose): 217.2 ng/mL and 325.9 ng/mL and 224.3 ng/mL | Mean AlbuBChE serum concentration (5.0 mg/kg IM, 128 hr post dose): 255.8 ng/mL and 256 ng/mL | AlbuBChE serum concentration, individual animals (5.0 mg/kg IM, 144 hr post dose): 158.4 ng/mL and 254.7 ng/mL and 163.3 ng/mL | Mean AlbuBChE serum concentration (5.0 mg/kg IM, 144 hr post dose): 192.1 ng/mL and 192 ng/mL | AlbuBChE serum concentration, individual animals (5.0 mg/kg IM, 168 hr post dose): 118.9 ng/mL and 165.5 ng/mL and 130.4 ng/mL | Mean AlbuBChE serum concentration (5.0 mg/kg IM, 168 hr post dose): 138.3 ng/mL and 138 ng/mL | AlbuBChE serum concentration, individual animals (5.0 mg/kg IM, 216 hr post dose): 73.7 ng/mL and 91.6 ng/mL and 79.4 ng/mL | Mean AlbuBChE serum concentration (5.0 mg/kg IM, 216 hr post dose): 81.6 ng/mL | AlbuBChE serum concentration, individual animals (5.0 mg/kg IM, 264 hr post dose): 41.9 ng/mL and 50.9 ng/mL and 47.2 ng/mL | Mean AlbuBChE serum concentration (5.0 mg/kg IM, 264 hr post dose): 46.7 ng/mL | tmax (5.0 mg/kg IM): 6 h
